Earlier results on 1 molecule are cited in patent publication US9012177B2, “Methods and compositions for improving sugar transport, mixed sugar fermentation, and production of biofuels” (The Regents of the University of California, priority 2009, dated 2015).

Where two headings read alike, the source gives them in different places.

The conditions of the data set: saturated xylitol, Watanabe et al. (2005b).

B1: psXDH (protein, UniProt P22144 1-363, looked up)
D-xylulose reductase: MTANPSLVLNKIDDISFETYDAPEISEPTDVLVQVKKTGICGSDIHFYAHGRIGNFVLTKPMVLGHESAGTVVQVGKGVTSLKVGDNVAIEPGIPSRFSDEYKSGHYNLCPHMAFAATPNSKEGEPNPPGTLCKYFKSPEDFLVKLPDHVSLELGALVEPLSVGVHASKLGSVAFGDYVAVFGAGPVGLLAAAVAKTFGAKGVIVVDIFDNKLKMAKDIGAATHTFNSKTGGSEELIKAFGGNVPNVVLECTGAEPCIKLGVDAIAPGGRFVQVGNAAGPVSFPITVFAMKELTLFGSFRYGFNDYKTAVGIFDTNYQNGRENAPIDFEQLITHRYKFKDAIEAYDLVRAGKGAVKCLIDGPE
As to B1, for the setting “NAD+”, the Km – broadly, the substrate concentration at which the rate is half of its maximum – was 381 µM and the kcat – broadly, the maximal rate divided by the concentration of active sites – was 17.5 s⁻¹. Also, the kcat (NADP+) was 1.83 s⁻¹.
